From paper PMC7080818

Experiments:
[1] = molecular target: 3xFLAG-HCMV-UL48, N-terminal catalytic domain of the HCMV large tegument protein (human cytomegalovirus (HCMV)) (UniProt P16785)
[2] = molecular target: 3xFLAG-KSHV-ORF64, N-terminal catalytic domain of the KSHV large tegument protein (Kaposi Sarcoma herpesvirus (KSHV)) (UniProt Q2HR64)
[3] = molecular target: 3xFLAG-BPLF1 (amino acid residues 1-235), N-terminal catalytic domain of the EBV large tegument protein (Epstein-Barr virus (EBV)) (UniProt P03186)
Sequence of UniProt P03186 (P03186 1-235): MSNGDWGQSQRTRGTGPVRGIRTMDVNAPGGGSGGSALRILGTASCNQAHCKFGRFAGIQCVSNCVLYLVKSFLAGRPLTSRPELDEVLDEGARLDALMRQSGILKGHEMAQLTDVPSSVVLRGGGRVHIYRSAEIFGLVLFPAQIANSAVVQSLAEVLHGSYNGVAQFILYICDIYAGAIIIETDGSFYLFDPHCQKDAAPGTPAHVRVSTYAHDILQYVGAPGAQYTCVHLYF

Sequence of UniProt Q2HR64 (Q2HR64 1-300): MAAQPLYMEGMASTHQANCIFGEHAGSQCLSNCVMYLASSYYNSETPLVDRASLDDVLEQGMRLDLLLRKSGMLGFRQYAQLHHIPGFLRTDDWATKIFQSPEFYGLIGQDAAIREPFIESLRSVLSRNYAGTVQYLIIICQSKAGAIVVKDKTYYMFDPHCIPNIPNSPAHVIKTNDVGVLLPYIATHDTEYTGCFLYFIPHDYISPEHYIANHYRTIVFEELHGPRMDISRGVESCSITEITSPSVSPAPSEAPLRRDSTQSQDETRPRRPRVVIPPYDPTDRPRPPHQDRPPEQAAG
Sequence of UniProt P16785 (P16785 1-300): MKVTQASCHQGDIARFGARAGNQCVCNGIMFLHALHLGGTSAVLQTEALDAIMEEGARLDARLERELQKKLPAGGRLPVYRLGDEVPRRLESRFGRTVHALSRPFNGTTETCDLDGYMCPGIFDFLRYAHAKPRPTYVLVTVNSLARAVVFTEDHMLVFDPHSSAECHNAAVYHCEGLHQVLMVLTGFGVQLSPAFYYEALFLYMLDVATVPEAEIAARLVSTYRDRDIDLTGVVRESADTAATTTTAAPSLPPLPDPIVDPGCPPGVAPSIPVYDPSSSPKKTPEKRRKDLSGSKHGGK

“14-3-3 molecular scaffold (endogenous, detected with a pan 14-3-3 antibody) (from UniProt P63104 1-245) (natural protein)” was tested. Which mono-ubiquitination of co-transfected HA-TRIM25 (western blot, densitometry), percent mono-ubiquitinated TRIM25 [1] did it give?
Its mono-ubiquitination of co-transfected HA-TRIM25 (western blot, densitometry), percent mono-ubiquitinated TRIM25 is over 70%.

And the mono-ubiquitination of co-transfected HA-TRIM25 (western blot, densitometry), percent mono-ubiquitinated TRIM25 [2]?
The mono-ubiquitination of co-transfected HA-TRIM25 (western blot, densitometry), percent mono-ubiquitinated TRIM25 was over 70%.

And the inhibition of IRF3 nuclear translocation in RIG-I-2CARD positive HeLa cells [3]?
Its inhibition of IRF3 nuclear translocation in RIG-I-2CARD positive HeLa cells is over 50%.
